Results from paper PMC5772683.

Molecular target: microtubules (MTs) assembled from bovine brain tubulin (bovine) (UniProt Q6B856)
Assay: co-sedimentation

## human Profilin-1 (PFN1), wildtype (from UniProt P07737 1-140) (natural protein)
  Kd: 10.7 µM
